Measured values: the supplement of paper PMC10065799, “High-throughput profiling of sequence recognition by tyrosine kinases and SH2 domains using bacterial peptide display” (eLife, 2023)

Columns and labels:
c-Abl (mouse) = experiment: phosphorylation enrichment, bacterial display (enrichment ratio); higher = better substrate or ligand; peptides without Tyr show the background
EPHB2 = EPHB2 (UniProt P29323); experiment: as above
AncSZ = experiment: as above
FGFR1 = FGFR1 (UniProt P11362); experiment: as above
c-Src = experiment: as above
EPHB1 = EPHB1 (UniProt P54762); experiment: as above
Fer (mouse) = experiment: as above
FGFR3 = FGFR3 (UniProt P22607); experiment: as above
Fes = Fes (UniProt P07332); experiment: as above
Jak2 = Jak2 (UniProt O60674); experiment: as above
Hck = Hck (UniProt P08631); experiment: as above
MERTK = MERTK (UniProt Q12866); experiment: as above
Fyn = Fyn (UniProt P06241); experiment: as above
Grb2 SH2 = Grb2 SH2 (UniProt P62993); experiment: SH2 binding enrichment of the phosphorylated peptide, bacterial display (enrichment ratio); higher = better substrate or ligand; peptides without Tyr show the background
SHP2-C SH2 = experiment: as above
c-Src SH2 = experiment: as above
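Wherever SH2 binding enrichment of the phosphorylated peptide, bacterial display is given: peptide library displayed on the E. coli surface as eCPX fusions, selected cells deep-sequenced, score is each peptide's frequency after selection divided by its frequency in the input.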
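Wherever phosphorylation enrichment, bacterial display is given: 11-residue human phosphosite peptides and single-mutation variants displayed on the E. coli surface, counted by deep sequencing, each peptide's frequency after selection divided by its frequency in the unselected input library; frequency after pTyr selection over input frequency; kinase dosed for 20-30% of maximal phosphorylation in three min.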

Sequence of EPHB2 (P29323 whole entry, looked up): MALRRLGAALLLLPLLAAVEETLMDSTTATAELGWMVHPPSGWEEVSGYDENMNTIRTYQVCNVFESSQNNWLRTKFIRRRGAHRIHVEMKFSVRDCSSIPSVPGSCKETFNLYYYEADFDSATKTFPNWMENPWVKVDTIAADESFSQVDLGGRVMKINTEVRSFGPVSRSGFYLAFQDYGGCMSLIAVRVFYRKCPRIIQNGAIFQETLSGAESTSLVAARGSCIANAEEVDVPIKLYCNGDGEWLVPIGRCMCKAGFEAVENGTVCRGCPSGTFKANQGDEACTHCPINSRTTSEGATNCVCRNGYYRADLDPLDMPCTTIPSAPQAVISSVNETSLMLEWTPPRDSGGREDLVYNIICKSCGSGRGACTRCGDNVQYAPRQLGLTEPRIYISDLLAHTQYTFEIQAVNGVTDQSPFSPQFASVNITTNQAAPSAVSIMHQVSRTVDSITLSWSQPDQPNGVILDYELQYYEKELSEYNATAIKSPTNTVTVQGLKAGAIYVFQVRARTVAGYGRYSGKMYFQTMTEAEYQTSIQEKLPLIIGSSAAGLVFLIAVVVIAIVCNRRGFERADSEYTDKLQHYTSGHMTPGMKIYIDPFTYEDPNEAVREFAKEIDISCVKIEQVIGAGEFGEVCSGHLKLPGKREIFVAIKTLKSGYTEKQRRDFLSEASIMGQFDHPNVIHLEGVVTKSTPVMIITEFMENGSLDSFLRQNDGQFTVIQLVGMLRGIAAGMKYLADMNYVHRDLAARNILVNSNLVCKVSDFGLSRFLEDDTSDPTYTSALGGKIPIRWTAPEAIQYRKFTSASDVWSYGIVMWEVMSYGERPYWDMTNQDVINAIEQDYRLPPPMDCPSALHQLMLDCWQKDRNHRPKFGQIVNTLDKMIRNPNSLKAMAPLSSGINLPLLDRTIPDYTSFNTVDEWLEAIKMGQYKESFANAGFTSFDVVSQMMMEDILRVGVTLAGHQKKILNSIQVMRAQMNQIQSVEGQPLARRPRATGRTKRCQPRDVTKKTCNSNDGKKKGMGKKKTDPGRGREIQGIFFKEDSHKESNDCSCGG
Sequence of Fes (P07332 whole entry, looked up): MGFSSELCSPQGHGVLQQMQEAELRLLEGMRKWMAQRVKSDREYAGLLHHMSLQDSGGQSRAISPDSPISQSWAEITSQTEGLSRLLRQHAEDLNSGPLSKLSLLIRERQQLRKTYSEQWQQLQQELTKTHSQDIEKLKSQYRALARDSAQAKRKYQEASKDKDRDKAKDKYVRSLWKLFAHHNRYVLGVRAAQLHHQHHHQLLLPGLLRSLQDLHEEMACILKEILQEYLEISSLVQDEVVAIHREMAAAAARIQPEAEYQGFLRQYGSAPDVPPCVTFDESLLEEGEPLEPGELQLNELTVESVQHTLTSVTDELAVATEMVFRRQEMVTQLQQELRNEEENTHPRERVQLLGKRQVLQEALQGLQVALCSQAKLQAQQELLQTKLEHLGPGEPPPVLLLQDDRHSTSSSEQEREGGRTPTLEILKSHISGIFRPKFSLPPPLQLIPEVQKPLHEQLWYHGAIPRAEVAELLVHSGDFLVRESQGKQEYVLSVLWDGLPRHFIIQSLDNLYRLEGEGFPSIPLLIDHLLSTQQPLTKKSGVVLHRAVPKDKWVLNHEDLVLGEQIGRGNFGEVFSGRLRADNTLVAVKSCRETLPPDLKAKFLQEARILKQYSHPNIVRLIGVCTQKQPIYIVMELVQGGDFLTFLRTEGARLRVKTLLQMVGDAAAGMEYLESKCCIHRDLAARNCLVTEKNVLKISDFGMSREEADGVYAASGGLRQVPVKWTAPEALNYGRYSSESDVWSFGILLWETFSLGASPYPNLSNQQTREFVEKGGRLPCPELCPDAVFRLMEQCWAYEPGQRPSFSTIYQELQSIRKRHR
Sequence of EPHB1 (P54762 whole entry, looked up): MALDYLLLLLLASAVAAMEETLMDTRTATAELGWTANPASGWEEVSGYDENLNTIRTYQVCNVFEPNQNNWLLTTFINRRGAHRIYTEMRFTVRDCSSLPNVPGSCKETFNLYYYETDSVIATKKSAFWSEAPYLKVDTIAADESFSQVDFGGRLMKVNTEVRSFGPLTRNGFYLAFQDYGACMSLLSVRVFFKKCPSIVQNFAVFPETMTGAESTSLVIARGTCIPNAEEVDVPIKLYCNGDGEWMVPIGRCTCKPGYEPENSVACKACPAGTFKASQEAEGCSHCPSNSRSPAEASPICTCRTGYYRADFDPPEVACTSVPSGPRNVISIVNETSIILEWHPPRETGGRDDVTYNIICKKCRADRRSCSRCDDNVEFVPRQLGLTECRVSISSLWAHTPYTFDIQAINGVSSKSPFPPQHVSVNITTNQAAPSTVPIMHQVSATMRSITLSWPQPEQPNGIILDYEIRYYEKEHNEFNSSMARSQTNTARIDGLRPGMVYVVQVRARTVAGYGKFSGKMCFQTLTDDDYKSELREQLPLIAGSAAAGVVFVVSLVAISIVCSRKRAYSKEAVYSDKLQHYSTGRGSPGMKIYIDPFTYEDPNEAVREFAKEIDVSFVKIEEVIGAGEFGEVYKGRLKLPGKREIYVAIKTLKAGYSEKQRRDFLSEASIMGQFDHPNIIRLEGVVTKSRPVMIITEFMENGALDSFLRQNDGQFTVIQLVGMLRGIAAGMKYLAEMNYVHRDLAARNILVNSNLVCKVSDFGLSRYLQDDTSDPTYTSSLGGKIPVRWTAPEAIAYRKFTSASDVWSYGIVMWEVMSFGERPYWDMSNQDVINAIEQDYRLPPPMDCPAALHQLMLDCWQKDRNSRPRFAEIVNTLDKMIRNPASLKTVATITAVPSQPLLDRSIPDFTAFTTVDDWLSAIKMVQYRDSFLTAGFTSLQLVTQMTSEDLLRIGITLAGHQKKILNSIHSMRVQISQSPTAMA
Sequence of FGFR3 (P22607 whole entry, looked up): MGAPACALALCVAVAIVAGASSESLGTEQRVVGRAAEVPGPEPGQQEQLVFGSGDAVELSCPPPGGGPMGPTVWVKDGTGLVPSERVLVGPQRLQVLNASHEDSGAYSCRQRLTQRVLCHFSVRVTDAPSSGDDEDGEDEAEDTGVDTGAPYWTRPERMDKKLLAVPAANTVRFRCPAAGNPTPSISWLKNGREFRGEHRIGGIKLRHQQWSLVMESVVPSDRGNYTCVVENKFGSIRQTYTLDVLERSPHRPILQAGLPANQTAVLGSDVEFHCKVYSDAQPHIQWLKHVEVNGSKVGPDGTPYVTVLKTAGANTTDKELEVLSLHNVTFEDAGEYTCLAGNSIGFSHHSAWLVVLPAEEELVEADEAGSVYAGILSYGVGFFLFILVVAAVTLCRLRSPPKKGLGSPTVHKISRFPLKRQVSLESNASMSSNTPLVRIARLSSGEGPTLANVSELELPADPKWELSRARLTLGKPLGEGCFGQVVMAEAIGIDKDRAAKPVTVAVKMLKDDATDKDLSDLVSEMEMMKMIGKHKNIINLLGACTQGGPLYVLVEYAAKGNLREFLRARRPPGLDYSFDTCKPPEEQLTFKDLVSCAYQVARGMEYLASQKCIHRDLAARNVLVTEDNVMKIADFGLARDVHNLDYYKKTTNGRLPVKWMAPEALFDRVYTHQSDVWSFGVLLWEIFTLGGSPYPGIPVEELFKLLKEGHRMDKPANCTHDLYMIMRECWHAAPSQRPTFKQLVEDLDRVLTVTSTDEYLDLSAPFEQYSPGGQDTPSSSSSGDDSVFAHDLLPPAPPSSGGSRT
Sequence of Jak2 (O60674 whole entry, looked up): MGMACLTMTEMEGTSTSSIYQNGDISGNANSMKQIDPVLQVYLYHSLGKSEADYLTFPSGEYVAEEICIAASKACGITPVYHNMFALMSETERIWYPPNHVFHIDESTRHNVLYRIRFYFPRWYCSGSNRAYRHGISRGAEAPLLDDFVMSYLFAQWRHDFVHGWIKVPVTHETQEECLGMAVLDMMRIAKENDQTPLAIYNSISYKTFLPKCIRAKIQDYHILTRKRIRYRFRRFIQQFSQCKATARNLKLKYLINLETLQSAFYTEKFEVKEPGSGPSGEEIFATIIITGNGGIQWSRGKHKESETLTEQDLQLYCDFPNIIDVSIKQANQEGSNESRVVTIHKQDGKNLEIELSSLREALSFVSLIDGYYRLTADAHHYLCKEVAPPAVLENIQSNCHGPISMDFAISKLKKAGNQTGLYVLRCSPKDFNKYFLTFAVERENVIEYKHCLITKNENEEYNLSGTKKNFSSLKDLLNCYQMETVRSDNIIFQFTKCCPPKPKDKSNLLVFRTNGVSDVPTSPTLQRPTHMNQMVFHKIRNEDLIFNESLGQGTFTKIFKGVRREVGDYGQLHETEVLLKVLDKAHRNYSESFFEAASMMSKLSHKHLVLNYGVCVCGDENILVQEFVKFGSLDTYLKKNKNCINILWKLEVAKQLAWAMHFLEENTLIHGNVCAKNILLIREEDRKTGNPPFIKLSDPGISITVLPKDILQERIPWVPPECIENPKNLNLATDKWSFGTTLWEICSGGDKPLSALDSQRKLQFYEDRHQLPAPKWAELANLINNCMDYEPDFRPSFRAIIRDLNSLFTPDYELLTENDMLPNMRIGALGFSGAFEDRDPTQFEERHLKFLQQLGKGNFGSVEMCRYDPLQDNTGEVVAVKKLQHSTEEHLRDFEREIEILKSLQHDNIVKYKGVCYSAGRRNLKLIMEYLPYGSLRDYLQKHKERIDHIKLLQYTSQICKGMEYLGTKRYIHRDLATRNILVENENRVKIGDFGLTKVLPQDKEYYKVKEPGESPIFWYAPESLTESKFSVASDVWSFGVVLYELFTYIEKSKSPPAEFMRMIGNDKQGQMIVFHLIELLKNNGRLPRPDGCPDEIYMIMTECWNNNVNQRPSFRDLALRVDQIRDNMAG

Sequence | SH2 binding enrichment (Grb2 SH2) | SH2 binding enrichment (SHP2-C SH2) | SH2 binding enrichment (c-Src SH2) | phosphorylation enrichment (c-Abl (mouse)) | phosphorylation enrichment (EPHB2) | phosphorylation enrichment (AncSZ) | phosphorylation enrichment (FGFR1) | phosphorylation enrichment (c-Src) | phosphorylation enrichment (EPHB1) | phosphorylation enrichment (Fer (mouse)) | phosphorylation enrichment (FGFR3) | phosphorylation enrichment (Fes) | phosphorylation enrichment (Jak2) | phosphorylation enrichment (Hck) | phosphorylation enrichment (MERTK) | phosphorylation enrichment (Fyn)
AAYNRYDQERF [CDC73_Y293] | 0.737 | 0.585 | 0.497 | 0.512 | 0.463 | 0.681 | 0.521 | 0.468 | 0.401 | 0.433 | 0.538 | 0.752 | 0.646 | 0.447 | 0.518 | 0.457
ALWYIYSHTRS [ENG_Y614] | 0.931 | 0.711 | 0.451 | 0.807 | 0.768 | 1.1 | 0.487 | 0.423 | 0.679 | 0.572 | 1.03 | 1.33 | 1.14 | 0.523 | 0.418 | 0.47
RSDSTYRMSAT [NHS_Y1532_S1531T] | 0.769 | 0.472 | 0.341 | 0.697 | 0.556 | 0.587 | 0.558 | 0.632 | 0.411 | 0.587 | 0.637 | 0.581 | 0.709 | 0.436 | 0.335 | 0.528
ILNANCMAKRL [GLDC_Y839_Y839C] | 0.802 | 0.727 | 0.534 | 0.498 | 0.439 | 0.612 | 0.477 | 0.378 | 0.306 | 0.342 | 0.403 | 0.628 | 0.611 | 0.391 | 0.42 | 0.351
SAQHHYESLQT [BIN1_Y157_R154Q] | 0.781 | 0.903 | 36.4 | 0.601 | 0.402 | 0.763 | 0.47 | 0.433 | 0.463 | 0.703 | 0.442 | 0.622 | 0.484 | 0.513 | 0.504 | 0.418
EEHIPCTHMNG [INSR_Y1361_Y1361C] | 0.709 | 0.7 | 0.649 | 0.865 | 0.597 | 0.916 | 0.592 | 0.497 | 0.581 | 0.612 | 0.632 | 0.867 | 1.03 | 0.435 | 0.552 | 0.436
LLAGLYRGQAL [FGFR4_Y390] | 0.63 | 0.882 | 0.508 | 0.591 | 0.594 | 0.857 | 0.459 | 0.452 | 0.433 | 0.683 | 0.526 | 0.833 | 0.72 | 0.571 | 0.553 | 0.494
IDFARYWHGDD [MMP11_Y162] | 0.843 | 0.878 | 0.674 | 0.592 | 0.504 | 0.81 | 0.477 | 0.387 | 0.676 | 0.799 | 0.567 | 0.857 | 0.639 | 0.463 | 0.536 | 0.405

Now from value to sequence, other results behind:

SH2 binding enrichment (Grb2 SH2) | SH2 binding enrichment (SHP2-C SH2) | SH2 binding enrichment (c-Src SH2) | Sequence | phosphorylation enrichment (c-Abl (mouse)) | phosphorylation enrichment (EPHB2) | phosphorylation enrichment (AncSZ) | phosphorylation enrichment (FGFR1) | phosphorylation enrichment (c-Src) | phosphorylation enrichment (EPHB1) | phosphorylation enrichment (Fer (mouse)) | phosphorylation enrichment (FGFR3) | phosphorylation enrichment (Fes) | phosphorylation enrichment (Jak2) | phosphorylation enrichment (Hck) | phosphorylation enrichment (MERTK) | phosphorylation enrichment (Fyn)
1.48 | 1.62 | 1.33 | LFCLHYFHRTF [SRD5A2_Y91_V89L] | 1.21 | 0.541 | 1.85 | 0.71 | 0.879 | 0.9 | 0.888 | 1.46 | 1.93 | 1.78 | 0.494 | 0.66 | 1.07
0.962 | 0.612 | 0.611 | SVVVLYEPPEV [TP53_Y220_P219L] | 1.19 | 11 | 1.72 | 0.588 | 0.701 | 4.88 | 5.4 | 0.738 | 1.15 | 1.06 | 1.42 | 3.56 | 0.59
0.759 | 0.794 | 0.522 | EIASHYRHLLR [ZBTB46_Y14_T11A] | 0.415 | 0.42 | 0.597 | 0.416 | 0.421 | 0.357 | 0.516 | 0.528 | 0.585 | 0.703 | 0.573 | 0.421 | 0.428
1.83 | 1.28 | 1.49 | LLIVEYAKYGS [RET_Y806] | 1.03 | 0.872 | 1.52 | 0.804 | 1.23 | 1.12 | 0.868 | 0.942 | 2.4 | 1.82 | 0.759 | 0.75 | 0.622
0.886 | 0.448 | 0.486 | LQTFRYHGLSM [PDHA1_Y289_H292L_YF] | 0.589 | 0.822 | 1.26 | 0.835 | 0.356 | 1.05 | 1.27 | 1.38 | 1.21 | 0.732 | 0.578 | 0.747 | 1.07
0.885 | 0.721 | 0.589 | CTNPQYLAAGS [RABL3_Y185_R184Q] | 0.602 | 0.505 | 0.724 | 0.465 | 0.409 | 0.487 | 0.47 | 0.609 | 0.849 | 0.778 | 0.505 | 0.424 | 0.537
0.906 | 0.786 | 0.549 | SMEMKYLEEKN [ZAP70_Y451_G448E] | 1.17 | 0.659 | 1.15 | 0.535 | 0.609 | 0.825 | 0.572 | 1.07 | 1.47 | 1.22 | 0.548 | 0.48 | 0.706
